# Test results as given in US20180334496A1 (KODIAK SCIENCES, published 2018).
# Changes are numbered by the printed parent chain.
# B1: KCD009 (antibody, V domains shown)
# VH: QIQLVQSGPELKKPGETVKISCKASGYIFRNYGMNWVKQGPGKGLKWMGWINTYTGEPTYADDFKGRFAFSLETSASTAYLQISNLKNEDTATYFCVRDGPGFAYWGQGTLVTVSA
# VL: DVLMTQTPLSLPVSLGDQASISCRSSLIIEHSDGNTYLEWYLQKPGQSPKLLIYKVSNRFSGVPDRFSGSGSGTDFTLKISRVEADDLGVYYCFQGSHVPVTFGAGTNLELK
# B2: KCD014 (antibody, V domains shown)
# VH: EVKLVESGGGLVQPGGSLKLSCAASGFTFSSYIMSWVRQTPEKRLEWVAYITNGGGNTYYPDTIKGRFTISRDNAKNTLYLQMSSLKSEDTAMYYCARHGTGYAMDYWGQGTSVTVSS
# VL: EIVLTQSPTTMAASPGEKITITCSASSSISSNYLHWYQQKPGFSPKLLIYRTSNLASGVPARFSGSGSGTSYSLTIGTMEAEDVATYYCQQGSSIPLTFGAGTKLELK
# B3: KCD033 (antibody, V domains shown)
# VH: EVQLQQSGPELVKPGASMKISCTASGYSFTGYTMTWVKQSHGKNLEWIGLINPYNGGTNYNQKFKGKATLTVDKSSSIAYMELLSLTSEDSAVYYCARRHYGSNWDYWGQGTTLTVSS
# VL: DIKLTQSPSSIYTSLGERVTITCKASQDINTYLSWFQQRPGKSPKTLIYRADRLVDGVPSRVRGSGSGQDYSLTISSLEYEDMGIYYCLQYDEFPYTFGGGTKLEIK
# B4: KCD036 (antibody, V domains shown)
# VH: B3 VH with T23K, L70F, I78T, N104S
# VL: B3 VL with I11M, T13A, R39K, D52N, V62F, R63S, D82E
# B5: KCD023 (antibody, V domains shown)
# VH: EVLLQQSGPELVKPGASVKIPCKASGYTFTDYNIDWVKQSHGKSLEWIGDINPNNGGINYNQKFKGKATLTVDKSSSTAYMELRSLTSEDTAVYYCGTGDYAYWGQGTLVTVSA
# VL: QIVLTQSPAFMSASPGEKVTLTCSASSSVSSSYLYWYQQKPGSSPKLWIYSTSNLASGVPGRFSGSGSGTSYSLTISSMEAEDAASYFCHQWTSYPPTFGAGTKLELK
# B6: KCD077 (antibody, V domains shown)
# VH: EVQLQQSGAELVRPGALVKLSCKASGFNIKDYYMHWVKQRPEQGLEWIGWIDPENGHTIYDPRFQGKATITADTSSNTAYLQLSSLTSEDTAVYYCSRGLLGFAYWGQGTLVTVSA
# VL: DIVMTQSQKFMSTSVGDRVSVTCKASQNVGTNVAWYQQKPGQSPKALIYTASYRYSGVPDRFTGSGSGTDFTLTISNVQSEDLAEYFCQQYNSYPHMYTFGGGTKLEIK
# B7: KCD022 (antibody, V domains shown)
# VH: DVQLQESGPDLVKPSQSLSLTCTVTGYSITSGYSWHWIRQFPGNTLEWMGYIHYSGSTNYNPSLESRISFTRDTSKNQFFLQLNSVTTEDTATYYCALHFYGYNLGWYFDVWGAGTTVTVSS
# VL: DIVMTQSHKFMSTSIGDRVIITCKASQDVGTTVAWYQQRPGQSPKLLIYWASTRHTAVPDRFTGSGSGTDFTLTISNVQSEDLADYFCQQYTSYPLTFGAGTQLELK
# B8: KCD132 (antibody, V domains shown)
# VH: QVQLQQSGPELVKPGASVKISCKASGYSFTDYYINWVKQRPGQGLEWIGWIFPGSGSTYYNEKFKGKATLTVDKSSSTAYMLLSSLTSEDSAVYFCARTGYYSNLYAVDYWGQGTSVTVSS
# VL: DIQMTQSPASLSVSVGETVTITCRASENIYSNLAWYQQKQGKSPQLLVYVATNLADGVPSRFSGSGSGTQYSLKINSLQSEDFGNYYCQHFWGTPYTFGGGTKLEMR
# B9: KCD042 (antibody, V domains shown)
# VH: EVQLQQSGAELVKPGASVRLSCTASGFNIKHTYIHWVSQRPEQGLEWIGKIDPANGNTKYDPKFQGKATITADTSSNTAYLQLSSLTSEDTAVYYCVNAMEYWGQGTSVTVSS
# VL: QSVLTQSPAIMSASPGEKVTMTCSANSSVSDMYWFQQRPGSSPRLLIYDTSNLASGVPVRFSGSGSGTSYSLTISRMEAEDAATYYCQQWSTYPWTFGGGTKLEIK
# B10: KCD044 (antibody, V domains shown)
# VH: B9 VH with I34M, Q43R, A79V, V97L
# VL: B9 VL with F35Y
# B11: KCD011 (antibody, V domains shown)
# VH: EVKLVESGGGLVQPGGSLKLSCAASGFTFSSNTMSWVRQTPEKRLEWVAYITNGGGSTYYPDTVKGRFTISRDNARNTLYLQMSSLKSEDTAMYYCARHDYYTMDYWGQGTSVTVSS
# VL: DIQMTQSPSSLSASLGGKVTITCKASQDINKYIAWYQHKPGKGPRLLIHYTSTLQPGIPSRFSGSGSGRDYSFSISNLEPEDIATYYCLQYDNLLYTFGGGTKLEIK
# B12: KCD062 (antibody, V domains shown)
# VH: B2 VH with S31T, N53S, G56S, N57S, I64V, N77S, G100A, T101H, G102F
# VL: B11 VL
# B13: KCD064 (antibody, V domains shown)
# VH: B2 VH with E46G, N53S, N57S, I64V
# VL: B11 VL with K103E
# B14: KCD057 (antibody, V domains shown)
# VH: EVKLVESGGGLVQPGGSLKLSCAASGFTFSNYIMSWVRQTPEKRLEWVAYITNGGGATYYPDTVKGQFTISRDNAKNTLYLQMSSLKSEDTAIYYCARHDFYALDFWGQGTSVTVSS
# VL: B11 VL with Q90K
# B15: KCD056 (antibody, V domains shown)
# VH: B11 VH with L20V, S31T, N32Y, V64E, R76K, A97V, T103A
# VL: B11 VL with K103T
# B16: KCD058 (antibody, V domains shown)
# VH: B14 VH with G10D, N31R, Q39L, Y50F, A57N, Y60H, Q67R, K76N, F101Y, F106Y
# VL: B11 VL
# B17: KCD063 (antibody, V domains shown)
# VH: B2 VH with T28I, N57S, I64V, F68L, A97V, G100A, T101H, G102Y
# VL: B11 VL with A34T
# B18: KCD015 (antibody, V domains shown)
# VH: EVQLQQSGAELVKPGASVKLSCTASGFNIKDTYMHWVKQRPEQGLEWIGRIDPANGYTEYDPKFQGKATITADTSSNTAYLQLSSLTSEDSAAYYCTSAMEFWGQGTSVTVSS
# VL: QIVLTQSPAILSASPGEKVTMTCSASSSVSYIYWYQQKPRSSPRLLIYDTSNLASGVPVRFSGSGSGTSYSLTISRMEAEDAATYYCQQWSSYPFTFGGGTKLEVK
# B19: KCD048 (antibody, V domains shown)
# VH: EVQLQQSGADLVKPGASVKLSCTASGFNIKATYMHWVRQRPEKGLEWIGRIDPANGHTIYDPQFQGKATITSDTSSNTAYLQLNSLTSEDTAVYYCAEAMDYWGQGTSVTVSS
# VL: B18 VL with L11M, M21L, S26T, I32M, R40G, A82D, S92N, V105I
# B20: KCD128 (antibody, V domains shown)
# VH: QVQLQQPGAELVRPESSVKLSCKASGYTFTSYWMDWVMQRPGQGLEWIGNIYPSGSETHYNQKFKDKATLTVDKSSTTAYMQLSSLTFEDSAVYYCARSGFIGSRYLYYFDYWGQGTTLTVSS
# VL: DIVMTQSHKFMSTSVGDRVTITCKASQDVSNAVAWYQLKPGQSPKLLIYSASYRYTGVPDRFTGSGSGTDFTFTISSVQAADLAVYYCQQHYITPYTFGGGTKLEIK
# B21: KCD102 (antibody, V domains shown)
# VH: QVQLQQPGAELVRPGTSVKLSCKASGYTFTSYWMHWVKQRPGQGLEWIGVIDPSDSYTNYNQKFKGKATLTVDTSSSTAYMQLSSLTSEDSAVYYCARNGYDGSMDYWGQGTSVTVSS
# VL: EIQMTQTTSSLSASLGDRVTISCRASQDISNYLNWYQQKPDGTVKLLIYYPSRLHSGVPSRFSGSGSGTDYSLTISNLEQEDFATYFCQQGNTLPYTFGGGTKLEIK
# B22: KCD103 (antibody, V domains shown)
# VH: B21 VH with N59K, G66D, D73E, R98G
# VL: B21 VL with E1D, Y32S, P51T, G57R, E79D, F83I, G91A
# B23: KCD104 (antibody, V domains shown)
# VH: B21 VH with N59Y, S104A
# VL: B21 VL
# B24: KCD101 (antibody, V domains shown)
# VH: B21 VH with A97G
# VL: B21 VL with E1D
# B25: KCD122 (antibody, V domains shown)
# VH: EVQLQQSGPELVKPGASVKISCKASGYTFTDYYKNWMRQRHGESLEWIGDINPNNGDANYNQKFKGKATLTVDKSSSTAYMELRSLTSEDSAVYFCAREGPSFAYWGHGTLVTVSA
# VL: DVLMTQTPLSLPVSLGDQASISCRSSQTIVHSNGDTYLEWYLQKPGQSPNLLIYKVSNRFSGVPDRFSGSGSGTDFTLKISRVEAEDLGVYYCFQGSHVPPTFGGGTKLEIK
# B26: KCD121 (antibody, V domains shown)
# VH: B25 VH with A58T, N59S, K65R, Y80F, F95Y, H108Q
# VL: B25 VL with S26N, K79R
# B27: KCD118 (antibody, V domains shown)
# VH: B25 VH with S25F, N55S, F95Y
# VL: B25 VL with V90I
# B28: KCD003 (antibody, V domains shown)
# VH: EVQLQQSRPELVKPGASVKIFCKASGYTFTDYYMNWMRQRHGETLEWIGDINPNNGDPSYNQKFKDKATLTVDKSSSTASMELRSLTSDDSAVYYCAREGPSFAYWGQGTLVTVSA
# VL: B25 VL with D17E
# B29: KCD123 (antibody, V domains shown)
# VH: B25 VH with Q3H, Y32F, D57G, A58T, F95Y, H108Q
# VL: B25 VL
# Target: T1, human Complement Factor D (CFD), purified from human serum (human, UniProt P00746 26-253)
# T1 construct: serum purified (CompTech A136); also called serum purified CFD; hCFD-Comptech
# Test: SPR MX96, mAbs amine-coupled, CFD injected
# T1 sequence (P00746 26-253): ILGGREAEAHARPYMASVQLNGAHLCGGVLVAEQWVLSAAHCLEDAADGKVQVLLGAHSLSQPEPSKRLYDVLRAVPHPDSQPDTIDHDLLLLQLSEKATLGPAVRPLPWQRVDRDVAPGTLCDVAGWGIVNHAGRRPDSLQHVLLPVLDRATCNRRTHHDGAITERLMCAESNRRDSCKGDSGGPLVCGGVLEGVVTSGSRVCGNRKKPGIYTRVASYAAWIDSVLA
row,Kd,Binder
1,5.57 nM,B1
2,21.8 nM,B2
3,10.9 nM,B3
4,25.5 nM,B4
5,5.29 nM,B5
6,16.9 nM,B6
7,56.8 nM,B7
8,2.61 nM,B8
9,1.43 nM,B9
10,2.62 nM,B10
11,77.5 nM,B11
12,24 nM,B12
13,20.3 nM,B13
14,2.71 nM,B14
15,60.2 nM,B15
16,9.91 nM,B16
17,33.3 nM,B17
18,6.23 nM,B18
19,1.87 nM,B19
20,14 nM,B20
21,3.56 nM,B21
22,4.37 nM,B22
23,1.58 nM,B23
24,3.78 nM,B24
25,1.44 nM,B25
26,1.8 nM,B26
27,0.757 nM,B27
28,1.05 nM,B28
29,2.77 nM,B29
